In patent US20140271457A1 (AbbVie / Abbott, published 2014):

Biological target: Recombinant Human IL-13 (human, UniProt P35225 35-146, limits assumed)
Test: cell-based or functional assay

Sequence of Recombinant Human IL-13 (P35225 35-146 limits assumed): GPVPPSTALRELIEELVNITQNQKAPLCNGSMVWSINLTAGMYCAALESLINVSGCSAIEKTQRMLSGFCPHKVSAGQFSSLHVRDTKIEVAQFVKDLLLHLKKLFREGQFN

Binder	IL-13 Neutralization Assay IC50
DVD2791 (bispecific antibody, human IgG1, kappa) heavy: not shown light: DIQMTQSPSSLSASVGDRVTISCRASQDIRNYLNWYQQKPGKAPKLLIFYTSKLHSGVPSRFSGSGSGTDYTLTISSLQPEDIATYYCQQGLTPPLTFGGGTKVEIKRTVAAPSVFIFPPDIQMTQSPSSLSASVGDRVTITCRASQDISQYLNWYQQKPGKAPKLLIYYTSRLQSGVPSRFSGSGSGTDFTLTISSLQPEDFATYFCQQGNTWPPTFGQGTKLEIKRTVAAPSVFIFPPSDEQLKSGTASVVCLLNNFYPREAKVQWKVDNALQSGNSQESVTEQDSKDSTYSLSSTLTLSKADYEKHKVYACEVTHQGLSSPVTKSFNRGEC	0.245 nM
DVD3016 (bispecific antibody, human IgG1, kappa) heavy: not shown light: DIQMTQSPSSLSASVGDRVTISCRASQDIRNYLNWYQQKPGKAPKLLIFYTSKLHSGVPSRFSGSGSGTDYTLTISSLQPEDIATYYCQQGLTPPLTFGGGTKVEIKRTVAAPSVFIFPPDIQMTQSPSSLSASVGDRVTITCRASQDIENYLNWYQQKPGKAPKLLIYYTSRLQSGVPSRFSGSGSGTDFTLTISSLQPEDFATYFCQQGNTQPPTFGQGTKLEIKRTVAAPSVFIFPPSDEQLKSGTASVVCLLNNFYPREAKVQWKVDNALQSGNSQESVTEQDSKDSTYSLSSTLTLSKADYEKHKVYACEVTHQGLSSPVTKSFNRGEC	0.081 nM
AB399 (antibody, V domains shown) VH: EVQLVQSGAEVKKPGASVKVSCKASGYTFTSYWMHWVRQAPGQGLEWIGNINPKGGSNIYNEKFQGRVTMTRDTSISTAYMELSRLRSDDTAVYYCARLDYFGDSFDLWGQGTTVTVSS VL: DIQMTQSPSSLSASVGDRVTITCRASQGIRNYLNWYQQKPGKAPKLLIYYASNLEVGVPSRFSGSGSGTDYTLTISSLQPEDFATYYCQQDNRFPYTFGGGTKVEIKR	0.075 nM
DVD3084 (bispecific antibody, human IgG1, kappa) heavy: not shown light: DIQMTQSPSSLSASVGDRVTITCRASQLVSSAVAWYQQKPGKAPKLLIYWASARHTGVPSRFSGSGSGTDFTLTISSLQPEDFATYYCQQHYKTPFTFGQGTKLEIKRTVAAPDVVMTQSPLSLPVTLGQPASISCRSSQSLVHSHGNTYLHWYQQRPGQSPRLLIYTVSNRFSGVPDRFSGSGSGTDFTLKISRVEAEDVGVYYCSQSTHVPYTFGGGTKVEIKRTVAAPSVFIFPPSDEQLKSGTASVVCLLNNFYPREAKVQWKVDNALQSGNSQESVTEQDSKDSTYSLSSTLTLSKADYEKHKVYACEVTHQGLSSPVTKSFNRGEC	0.587 nM
DVD3083 (bispecific antibody, human IgG1, kappa) heavy: not shown light: DIQMTQSPSSLSASVGDRVTITCRASQLVSSAVAWYQQKPGKAPKLLIYWASARHTGVPSRFSGSGSGTDFTLTISSLQPEDFATYYCQQHYKTPFTFGQGTKLEIKRGGSGGGGSGDVVMTQSPLSLPVTLGQPASISCRSSQSLVHSHGNTYLHWYQQRPGQSPRLLIYTVSNRFSGVPDRFSGSGSGTDFTLKISRVEAEDVGVYYCSQSTHVPYTFGGGTKVEIKRTVAAPSVFIFPPSDEQLKSGTASVVCLLNNFYPREAKVQWKVDNALQSGNSQESVTEQDSKDSTYSLSSTLTLSKADYEKHKVYACEVTHQGLSSPVTKSFNRGEC	0.098 nM
DVD2789 (bispecific antibody, human IgG1, kappa) heavy: not shown light: DIQMTQSPSSLSASVGDRVTISCRASQDIRNYLNWYQQKPGKAPKLLIFYTSKLHSGVPSRFSGSGSGTDYTLTISSLQPEDIATYYCQQGLTPPLTFGGGTKVEIKRTVAAPDIQMTQSPSSLSASVGDRVTITCRASQDISQYLNWYQQKPGKAPKLLIYYTSRLQSGVPSRFSGSGSGTDFTLTISSLQPEDFATYFCQQGNTWPPTFGQGTKLEIKRTVAAPSVFIFPPSDEQLKSGTASVVCLLNNFYPREAKVQWKVDNALQSGNSQESVTEQDSKDSTYSLSSTLTLSKADYEKHKVYACEVTHQGLSSPVTKSFNRGEC	0.078 nM
DVD2792 (bispecific antibody, human IgG1, kappa) heavy: not shown light: DIQMTQSPSSLSASVGDRVTISCRASQDIRNYLNWYQQKPGKAPKLLIFYTSKLHSGVPSRFSGSGSGTDYTLTISSLQPEDIATYYCQQGLTPPLTFGGGTKVEIKRTVAAPDIQMTQSPSSLSASVGDRVTITCRASQDISQYLNWYQQKPGKAPKLLIYYTSRLQSGVPSRFSGSGSGTDFTLTISSLQPEDFATYFCQQGNTWPPTFGQGTKLEIKRTVAAPSVFIFPPSDEQLKSGTASVVCLLNNFYPREAKVQWKVDNALQSGNSQESVTEQDSKDSTYSLSSTLTLSKADYEKHKVYACEVTHQGLSSPVTKSFNRGEC	0.361 nM
DVD3014 (bispecific antibody, human IgG1, kappa) heavy: not shown light: DIQMTQSPSSLSASVGDRVTISCRASQDIRNYLNWYQQKPGKAPKLLIFYTSKLHSGVPSRFSGSGSGTDYTLTISSLQPEDIATYYCQQGLTPPLTFGGGTKVEIKRTVAAPDIQMTQSPSSLSASVGDRVTITCRASQDIENYLNWYQQKPGKAPKLLIYYTSRLQSGVPSRFSGSGSGTDFTLTISSLQPEDFATYFCQQGNTQPPTFGQGTKLEIKRTVAAPSVFIFPPSDEQLKSGTASVVCLLNNFYPREAKVQWKVDNALQSGNSQESVTEQDSKDSTYSLSSTLTLSKADYEKHKVYACEVTHQGLSSPVTKSFNRGEC	0.132 nM
DVD3086 (bispecific antibody, human IgG1, kappa) heavy: not shown light: DIQMTQSPSSLSASVGDRVTITCRASQLVSSAVAWYQQKPGKAPKLLIYWASARHTGVPSRFSGSGSGTDFTLTISSLQPEDFATYYCQQHYKTPFTFGQGTKLEIKRTVAAPSVFIFPPDVVMTQSPLSLPVTLGQPASISCRSSQSLVHSHGNTYLHWYQQRPGQSPRLLIYTVSNRFSGVPDRFSGSGSGTDFTLKISRVEAEDVGVYYCSQSTHVPYTFGGGTKVEIKRTVAAPSVFIFPPSDEQLKSGTASVVCLLNNFYPREAKVQWKVDNALQSGNSQESVTEQDSKDSTYSLSSTLTLSKADYEKHKVYACEVTHQGLSSPVTKSFNRGEC	0.12 nM
DVD2788 (bispecific antibody, human IgG1, kappa) heavy: not shown light: DIQMTQSPSSLSASVGDRVTISCRASQDIRNYLNWYQQKPGKAPKLLIFYTSKLHSGVPSRFSGSGSGTDYTLTISSLQPEDIATYYCQQGLTPPLTFGGGTKVEIKRGGSGGGGSGDIQMTQSPSSLSASVGDRVTITCRASQDISQYLNWYQQKPGKAPKLLIYYTSRLQSGVPSRFSGSGSGTDFTLTISSLQPEDFATYFCQQGNTWPPTFGQGTKLEIKRTVAAPSVFIFPPSDEQLKSGTASVVCLLNNFYPREAKVQWKVDNALQSGNSQESVTEQDSKDSTYSLSSTLTLSKADYEKHKVYACEVTHQGLSSPVTKSFNRGEC	0.072 nM
DVD3013 (bispecific antibody, human IgG1, kappa) heavy: not shown light: DIQMTQSPSSLSASVGDRVTISCRASQDIRNYLNWYQQKPGKAPKLLIFYTSKLHSGVPSRFSGSGSGTDYTLTISSLQPEDIATYYCQQGLTPPLTFGGGTKVEIKRGGSGGGGSGDIQMTQSPSSLSASVGDRVTITCRASQDIENYLNWYQQKPGKAPKLLIYYTSRLQSGVPSRFSGSGSGTDFTLTISSLQPEDFATYFCQQGNTQPPTFGQGTKLEIKRTVAAPSVFIFPPSDEQLKSGTASVVCLLNNFYPREAKVQWKVDNALQSGNSQESVTEQDSKDSTYSLSSTLTLSKADYEKHKVYACEVTHQGLSSPVTKSFNRGEC	0.077 nM

Second part, the binder after the results:

IL-13 Neutralization Assay IC50	Binder
0.082 nM	DVD3087 (bispecific antibody, human IgG1, kappa) heavy: not shown light: DIQMTQSPSSLSASVGDRVTITCRASQLVSSAVAWYQQKPGKAPKLLIYWASARHTGVPSRFSGSGSGTDFTLTISSLQPEDFATYYCQQHYKTPFTFGQGTKLEIKRTVAAPDVVMTQSPLSLPVTLGQPASISCRSSQSLVHSHGNTYLHWYQQRPGQSPRLLIYTVSNRFSGVPDRFSGSGSGTDFTLKISRVEAEDVGVYYCSQSTHVPYTFGGGTKVEIKRTVAAPSVFIFPPSDEQLKSGTASVVCLLNNFYPREAKVQWKVDNALQSGNSQESVTEQDSKDSTYSLSSTLTLSKADYEKHKVYACEVTHQGLSSPVTKSFNRGEC
0.444 nM	DVD3094 (bispecific antibody) heavy: not shown light: DIQMTQSPSSLSASVGDRVTITCKASQLVSSAVAWYQQKPGKAPKLLIYWASTLHTGVPSRFSGSGSGTDFTLTISSLQPEDFATYYCQQHYRTPFTFGQGTKLEIKRTVAAPDVVMTQSPLSLPVTLGQPASISCRSSQSLVHSHGNTYLHWYQQRPGQSPRLLIYTVSNRFSGVPDRFSGSGSGTDFTLKISRVEAEDVGVYYCSQSTHVPYTFGGGTKVEIKRTVAAPSVFIFPPSDEQLKSGTASVVCLLNNFYPREAKVQWKVDNALQSGNSQESVTEQDSKDSTYSLSSTLTLSKADYEKHKVYACEVTHQGLSSPVTKSFNRGEC
0.067 nM	DVD3093 (bispecific antibody) heavy: not shown light: DIQMTQSPSSLSASVGDRVTITCKASQLVSSAVAWYQQKPGKAPKLLIYWASTLHTGVPSRFSGSGSGTDFTLTISSLQPEDFATYYCQQHYRTPFTFGQGTKLEIKRGGSGGGGSGDVVMTQSPLSLPVTLGQPASISCRSSQSLVHSHGNTYLHWYQQRPGQSPRLLIYTVSNRFSGVPDRFSGSGSGTDFTLKISRVEAEDVGVYYCSQSTHVPYTFGGGTKVEIKRTVAAPSVFIFPPSDEQLKSGTASVVCLLNNFYPREAKVQWKVDNALQSGNSQESVTEQDSKDSTYSLSSTLTLSKADYEKHKVYACEVTHQGLSSPVTKSFNRGEC
0.111 nM	DVD3017 (bispecific antibody, human IgG1, kappa) heavy: not shown light: DIQMTQSPSSLSASVGDRVTISCRASQDIRNYLNWYQQKPGKAPKLLIFYTSKLHSGVPSRFSGSGSGTDYTLTISSLQPEDIATYYCQQGLTPPLTFGGGTKVEIKRTVAAPDIQMTQSPSSLSASVGDRVTITCRASQDIENYLNWYQQKPGKAPKLLIYYTSRLQSGVPSRFSGSGSGTDFTLTISSLQPEDFATYFCQQGNTQPPTFGQGTKLEIKRTVAAPSVFIFPPSDEQLKSGTASVVCLLNNFYPREAKVQWKVDNALQSGNSQESVTEQDSKDSTYSLSSTLTLSKADYEKHKVYACEVTHQGLSSPVTKSFNRGEC
0.064 nM	DVD3096 (bispecific antibody) heavy: not shown light: DIQMTQSPSSLSASVGDRVTITCKASQLVSSAVAWYQQKPGKAPKLLIYWASTLHTGVPSRFSGSGSGTDFTLTISSLQPEDFATYYCQQHYRTPFTFGQGTKLEIKRTVAAPSVFIFPPDVVMTQSPLSLPVTLGQPASISCRSSQSLVHSHGNTYLHWYQQRPGQSPRLLIYTVSNRFSGVPDRFSGSGSGTDFTLKISRVEAEDVGVYYCSQSTHVPYTFGGGTKVEIKRTVAAPSVFIFPPSDEQLKSGTASVVCLLNNFYPREAKVQWKVDNALQSGNSQESVTEQDSKDSTYSLSSTLTLSKADYEKHKVYACEVTHQGLSSPVTKSFNRGEC
